Measurements from US20230374140A1 (Memorial Sloan Kettering, published 2023).

What was measured:
[1] = target: T1, NC4 peptide … / HLA-A*02:01 complex (human); assay: FACS, scFv phage on T2 cells loaded with single peptide
T1 construct: whole, on cells; On pulsed T2 cells

[2] = target: T2, NC1 peptide … / HLA-A*02:01 complex (human); assay: as above
T2 construct: whole, on cells; On pulsed T2 cells; also pulled down from BV173 lysate (HLA-A*02) and presented on JMN cells

[3] = target: T3, NC2 peptide … / HLA-A*02:01 complex (human); assay: as above
T3 construct: whole, on cells; On pulsed T2 cells; also presented on JMN cells (HLA-A*02)

[4] = target: T4, NC3 peptide … / HLA-A*02:01 complex (human); assay: as above
T4 construct: whole, on cells; On pulsed T2 cells; also pulled down from BV173 lysate (HLA-A*02)

[5] = target: T5, NDC80 Peptide A … / HLA-A*02:01 complex (human); assay: FACS, scFv phage on peptide-loaded T2 cells
T5 construct: whole, on cells; On peptide-pulsed T2 cells (HLA-A*02:01+); also called NDC80/HLA-A*02:01 complex; NDC80/MHC I
From the text: 34 human phage scFv libraries were used to pan against NDC80/HLA-A*02:01 complex. In order to avoid the conformational change of MHC I complex introduced by immobilizing the protein complex onto plastic surfaces, cell panning was used in place of conventional plate panning. In cell panning, the human scFv phage libraries were first mixed with T2 cells loaded with control peptides to remove scFv phage clones that bind to T2 cells alone or MHC alone. […] T2 is a TAP-deficient, HLA-A*02:01⁺ lymphoblast cell line that express low amounts of HLA-A*02 on the cell surface and can only present exogenous peptides. […] After extensive washing with PBS, peptide-loaded T2 cells with bound scFv antibody phage were spun down. […] The panning was performed for 3 rounds to enrich scFv phage clones that bound NDC80/HLA-A*02:01 specifically.

[6] = target: T6, HLA-A*02:01 on T2 cells (human); assay: HLA-A*02 stabilization on pulsed T2 cells, BB7.2 staining, flow cytometry
T6 construct: whole, on cells; MHC class I molecule of TAP-deficient T2 cells, stabilized by exogenous peptide and detected with BB7.2; also called A*02 protein
Method: Flow Cytometry. T2 cells were pulsed overnight with 50 μg/ml of one of the indicated peptides. Pulsed T2 cells were then stained with either BB7.2-PE antibody specific for HLA-A*02 to ensure stabilization of T2 cells with the pulsed peptides or with the labeled TCR mimic antibodies for 30 min on ice as described herein. Cells were washed after incubation with FACS buffer, resuspended in FACS buffer supplemented with DAPI and analyzed using a BD Fortessa™ flow cytometer.
For alanine screening assays, alanine or glycine substituted peptides were purchased from Genemed Synthesis, Inc. (San Antonio, Texas, USA). Besides the unsubstituted sequence of [sequence] […] If in the original peptide sequence the amino acid present was an alanine, the amino acid was changed to glycine. All other amino acids were changed into alanines.

[7] = target: T5, NDC80 Peptide A … / HLA-A*02:01 complex; assay: flow cytometry, PE-conjugated antibody on pulsed T2 cells
Method: Pulsed T2 cells were harvested, washed with FACS buffer (PBS, 2% FBS and 0.01% sodium azide) and incubated for 30 min, light-protected, on ice with 2 μg/ml of the labeled antibodies. After incubation, cells were washed again with FACS buffer and resuspended in FACS buffer supplemented with DAPI. For the experiments described in FIGS. 10A-10I, incubation with the TCR mimic antibodies was performed at 2, 10 and 50 μg/ml. Cells were analyzed on an LSRFortessa™ (BD) flow cytometer; the data were analyzed using FlowJo™ v9 software.

[8] = target: T7, NDC80 derived peptide … / HLA-A*02:01 complex (human); assay: flow cytometry, antibody on pulsed T2 cells
T7 construct: whole, on cells; On pulsed T2 cells

[9] = target: T8, NDC80 derived peptide … / HLA-A*02:01 complex (human); assay: flow cytometry, antibody on pulsed T2 cells; remark: listed apart in the source
T8 construct: whole, on cells; On pulsed T2 cells

[10] = target: T2, NC1 peptide … / HLA-A*02:01 complex; assay: immunopurification from BV173 cell lysate and LC-MS/MS, relative quantitation
Method: (§1) 200M BV173 cells were lysed with 1% CHAPS, incubated for 1h in the cold room and spun down at 20,000 g for 50 min.

[11] = target: T9, … / HLA-A*02:01 complex (human); assay: as above
T9 construct: whole, on cells; On pulsed T2 cells; also pulled down from BV173 lysate (HLA-A*02)
Method: as §1

[12] = target: T4, NC3 peptide … / HLA-A*02:01 complex; assay: as above
Method: as §1

[13] = target: T10, … / HLA-A*02:01 complex (human); assay: as above; remark: listed apart in the source
T10 construct: whole, on cells; On pulsed T2 cells; also pulled down from BV173 lysate (HLA-A*02)
Method: as §1

B1: Clone 1 scFv phage clone (Clone 01 scFv) (scFv)
scFv: DIQLTQSPSSLSASVGDRVTITCRASQGIRNDLGWYQQKPGKAPKLMIYAASSLQSGVPSRFSGSGSGTDFTLTISSLQPEDFATYYCLQDYDYPLTFGGGTKLEIKRSRGGGGSGGGGSGGGGSLEMAEVQLVQSGAEVKKPGESLKISCEASGYSFSSNWIAWVRQRPGKGLEWMGIIYPGDSDTRYSPSFQGQVTMSADMSISTAYLQWSSLKASDTAMYYCARFAGPGMWSYGFDYWGQGTLVTVSS
notes: also called phage clone 1
binding result [1]: no binding
binding result [2]: no binding
binding result [3]: no binding
binding result [4]: no binding
binding result [5]: binds

B2: Clone 11 scFv phage clone (Clone 11 scFv) (scFv)
scFv: NFMLTQPHSVSESPGKTVTISCTRSSGSIASNYVQWYQQRPGSAPTTVIYEDNQRPSGVPDRFSGSIDSSSNSASLTISGLKTEDEADYYCQSYDSSNVVFGGGTKLTVLGSRGGGGSGGGGSGGGGSLEMAQVQLVQSGAEVRKPGASVKVSCKASGYSFTSNGITWVRQAPGQGLEWMGWISGYNANTRYAQEFQARVTMTTDTSASTAYMELRSLRSDDTAVYYCARHAYWGGDSDYWGQGTLVTVSS
binding result [1]: no binding
binding result [2]: no binding
binding result [3]: no binding
binding result [4]: no binding
binding result [5]: binds

B3: Clone 14 scFv phage clone (Clone 14 scFv) (scFv)
scFv: QSVLTQPPSVSAAPGQRVTISCSGSTSNIGSNYVSWYQQFPGTAPKLLIYDSDKRISGIPDRFSGSKSGTSATLGITGLQTGDEADYYCGTWDSSLTVGVFGGGTKVTVLGSRGGGGSGGGGSGGGGSLEMAQLQLQESGPGLVKPSGTLSLTCAVSGGSISSSNWWSWVRQPPGKGLEWIGEIYHSGSTNYNPSLKSRVTISVDKSKNQFSLKLSSVTAADTAVYYCARYFGQKYDYWGQGTLVTVSS
binding result [1]: no binding
binding result [2]: no binding
binding result [3]: no binding
binding result [4]: no binding
binding result [5]: binds

B4: Clone 18 scFv phage clone (Clone 18 scFv) (scFv)
scFv: QSVLTQPPSVSVAPGQKVTISCSGSSSNIGNNYVSWYQQLPGTAPKLLIYDNNKRPSGIPDRFSGSKSGTSATLGITGLQTGDEADYYCQSYDVYNMTSVFGGGTKLTVLGSRGGGGSGGGGSGGGGSLEMAQMQLVQSGAEVKKPGSSVKVSCKASGGTFSSYAISWVRQAPGQGLEWMGGIIPIFGTANYAQKFQGRVTITADESTSTAYMELSSLRSDDTAVYYCARGFSSWPGIDQWGQGTLVTVSS
binding result [1]: no binding
binding result [2]: no binding
binding result [3]: no binding
binding result [4]: no binding
binding result [5]: binds

B5: Clone 19 scFv phage clone (Clone 19 scFv) (scFv)
scFv: NFMLTQPHSVSESPGKTVTISCVRSSGSVASEFVQWYQQRPGHAPTLVIYNDFQRPSGVPDRFSGSIDKSSNSASLTISGLKAEDEADYYCQSYDQSSSIVFGGGTKLTVLGSRGGGGSGGGGSGGGGSLEMAEVQLVQSGAEVKKPGESLKISCKGSGYSFTTYWIGWVRQMPGKGLEWMGIIYPGDSDTTYSPSFQGQVTISADKSLSIAYLQWSSLKASDTAMYYCARYGGQYFWSDSFDSWGQGTLVTVSS
binding result [1]: no binding
binding result [2]: no binding
binding result [3]: no binding
binding result [4]: no binding
binding result [5]: binds

B6: Clone 7 scFv phage clone (Clone 07 scFv) (scFv)
scFv: QSVVTQPPSVSGAPGQRITISCTGSSSNIGAGYDVHWYQQLPGTAPKLLIFGNVNRPSGVPDRFSGSKSGTSASLAITGLQAEDEADYYCQSYDSSLSGWVFGGGTKLTVLGSRGGGGSGGGGSGGGGSLEMAQVQLQQSGAEVKKPGATVKVSCKASGYTFTSYGISWVRQAPGQGLEWMGWISAYNGNTNYAQKLQGRVTMTTDTSTSTAYMELRSLRSDDTAVYYCARMSMSEYIDYWGQGTLVTVSS
binding result [1]: no binding
binding result [2]: no binding
binding result [3]: no binding
binding result [4]: no binding
binding result [5]: binds

B7: Clone 10 scFv phage clone (scFv, V domains shown)
VH: QVQLQESGPGLVKPPGTLSLTCAVSGGSISSSNWWSWVRQPPGKGLEWIGEIYHSGSTNYNPSLNSRVIISDDTSKNQFSLTLTSVTAADTAVYYCARYYNSYYDSWGQGTLVTVSS
VL: QSVLTQPPSVSAAPGQKVTISCSGSSSNIGSNYVSWYQQLPGTAPKLLIYDNNKRPSGIPDRFSGSKSGTSATLGITGLQTGDEADYYCGTWDSSLSAYVFGTGTKVTVLG
binding result [5]: binds

B8: NDC80 Peptide A ALNEQIARL (synthetic peptide) (peptide)
peptide: ALNEQIARL
notes: Free peptide pulsed on T2 cells at 50 µg/ml in the HLA-A*02 stabilization assay; also called unmodified peptide; wild-type peptide
binding result [6]: binds

B9: TCR mimic antibody clone 11 (mIgG1 format) (antibody, V domains shown)
VH: QVQLVQSGAEVRKPGASVKVSCKASGYSFTSNGITWVRQAPGQGLEWMGWISGYNANTRYAQEFQARVTMTTDTSASTAYMELRSLRSDDTAVYYCARHAYWGGDSDYWGQGTLVTVSS
VL: NFMLTQPHSVSESPGKTVTISCTRSSGSIASNYVQWYQQRPGSAPTTVIYEDNQRPSGVPDRFSGSIDSSSNSASLTISGLKTEDEADYYCQSYDSSNVVFGGGTKLTVLG
notes: conjugated to PE for flow cytometry
binding result [7]: binds

B10: TCR mimic antibody clone 1 (mIgG1 clone 1 antibody) (antibody, V domains shown)
VH: EVQLVQSGAEVKKPGESLKISCEASGYSFSSNWIAWVRQRPGKGLEWMGIIYPGDSDTRYSPSFQGQVTMSADMSISTAYLQWSSLKASDTAMYYCARFAGPGMWSYGFDYWGQGTLVTVSS
VL: DIQLTQSPSSLSASVGDRVTITCRASQGIRNDLGWYQQKPGKAPKLMIYAASSLQSGVPSRFSGSGSGTDFTLTISSLQPEDFATYYCLQDYDYPLTFGGGTKLEIKR
notes: also called NDC80 clone 1 mAb; mouse version of NDC80 clone 1 mAb
binding result [8]: no binding
binding result [9]: no binding
fold lower MS signal intensity than … [10]: 3 fold
fold lower MS signal intensity than … [11]: ≥ 3 fold
fold lower MS signal intensity than … [12]: ≥ 3 fold
fold lower MS signal intensity than … [13]: ≥ 3 fold
